Measurements: patent publication US6821739B2, “Methods of diagnosing and treating Crohn's disease using Pseudomonas antigens” (The Regents of the University of California, priority 2000, dated 2004)

Tested on: CD4+ T cells from C57BL/6J mice
Type: cell-based, mouse
Conditions: 72 hours

B1: PFTR: P. fluorescens polypeptide of 198 amino acids (SEQ ID NO: 5), similar to bacterial ferrodoxins (protein)
chain: MRTMVDSGQLTDPESARGKLLQTAAHLFRNKGFERTTVRDLASAVGIQSGSIFHHFKSKDEILRAVMEETTHYNTAMMRASLEEASTVRERVLALIRCKLQSIMGGSGEAMAVLVYEWRSLSAEGQAHVLALRDVYEQIWLQVLGEAKAAGYIRGDVFITRRFLTGALSWTTTWFRAQGSLTLEELAEEALLMVLKSD
modifications: P. fluorescens
stimulation of CD4+ T cell proliferation: strongly stimulated
